T1: CEACAM1 antigen (Sino Biological, Inc.) (UniProt P13688 35-428)
T1 construct: Bought antigen coated on the ELISA plate; construct not described; also called CEACAM1 (CD66a) antigen; CD66a
T1 sequence (looked up): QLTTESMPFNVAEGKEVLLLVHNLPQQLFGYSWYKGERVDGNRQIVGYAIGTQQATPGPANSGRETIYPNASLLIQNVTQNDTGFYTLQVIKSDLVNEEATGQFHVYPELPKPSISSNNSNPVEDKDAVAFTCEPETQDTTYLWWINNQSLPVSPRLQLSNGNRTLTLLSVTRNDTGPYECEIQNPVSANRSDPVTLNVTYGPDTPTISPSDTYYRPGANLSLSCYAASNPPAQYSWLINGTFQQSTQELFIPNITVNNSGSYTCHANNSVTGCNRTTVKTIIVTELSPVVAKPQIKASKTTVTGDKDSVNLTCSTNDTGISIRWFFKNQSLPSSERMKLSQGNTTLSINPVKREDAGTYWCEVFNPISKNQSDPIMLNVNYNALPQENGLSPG

T2: Antigen CD66c (CEACAM6; Sino Biological, Inc.) (UniProt P40199 35-320)
T2 construct: Bought antigen coated on the ELISA plate; construct not described; also called CD66c antigen; CECACAM6
T2 sequence (looked up): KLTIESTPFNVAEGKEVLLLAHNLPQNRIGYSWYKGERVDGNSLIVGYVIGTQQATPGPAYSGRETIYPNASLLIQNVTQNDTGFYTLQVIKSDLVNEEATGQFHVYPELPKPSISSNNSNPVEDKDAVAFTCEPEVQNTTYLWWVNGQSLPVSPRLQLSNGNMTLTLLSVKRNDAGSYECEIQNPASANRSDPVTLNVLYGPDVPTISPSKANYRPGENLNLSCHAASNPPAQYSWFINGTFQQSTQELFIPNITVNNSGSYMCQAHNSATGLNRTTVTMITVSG

T3: CD66c (CEACAM6) on CD66c-positive A549 non-small-cell lung cancer cells (UniProt P40199 35-320, limits assumed)
T3 construct: whole, on cells; also called CD66c antigen; NCA-90
T3 sequence (looked up): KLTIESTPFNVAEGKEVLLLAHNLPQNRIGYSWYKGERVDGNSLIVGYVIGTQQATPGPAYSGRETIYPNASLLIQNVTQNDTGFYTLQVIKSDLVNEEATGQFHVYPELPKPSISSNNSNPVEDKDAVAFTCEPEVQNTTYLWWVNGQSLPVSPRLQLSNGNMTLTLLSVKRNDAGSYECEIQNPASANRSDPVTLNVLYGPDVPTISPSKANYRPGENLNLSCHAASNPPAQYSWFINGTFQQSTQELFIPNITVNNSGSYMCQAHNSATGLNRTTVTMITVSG

B1: recombinant humanized anti-CD66c antibody Protein ID 3058 (Vk8 + VH11) (antibody, human IgG1, V domains shown)
VH: QVQLVQSGAEVKKPGASVKISCKASGYSFTDYTMHWVKQAPGQNLEWIGLINPFGGSTSYAQKFKGRVTMTRDTSTNTAYMELSRLRSDDTAVYYCVRGDPVRHYYALAYWGQGTLVTVSS
VL: DIQMTQSPSTLSASVGDRVTITCRASENVYGTLNWYQRKPGKAPKLLIYGATNLADGMPSRFSGSGSGTEYTLTISSLQPDDFATYYCQNVLSAPYTFGGGTKLEIK
notes: also called hu 3058; #86
B2: recombinant humanized anti-CD66c antibody Protein ID 3007 (Vk7 + VH6) (antibody, human IgG1, V domains shown)
VH: QVQLVQSGAEVKKPGASMKISCKASGYSFTDYTMNWVKQAPGQNLEWIGLINPFHGGTVSNQRFKVKATLTVDVSTNTAYMELSRLRSDDTAVYYCVRGDPVRHYYALAYWGQGTLVTVSS
VL: DIQMTQSPSTLSASVGDRVTITCGASENVYGTLNWYQRKPGKAPKLLIYGATNLADGVPSRFSGSGSGTEYTLTISSLQPDDFATYYCQNVLSAPYTFGGGTKLEIK
notes: also called hu 3007; #43
B3: recombinant humanized anti-CD66c antibody Protein ID 2938 (Vk5 + VH7) (antibody, human IgG1, V domains shown)
VH: QVQLVQSGAEVKKPGASMKISCKASGYSFTDYTMNWVRQAPGQGLEWIGLINPFHGGTVSNQRFKVKATLTVDVSTNTAYMELSRLRSDDTAVYYCVRGDPVRHYYALAYWGQGTLVTVSS
VL: DIQMTQSPSTLSASVGDRVTITCGASENVYGTLAWYQRKPGKAPKLLIYGATNLADGVPSRFSGSGSGREYTLTISSLQPDDFATYYCQNVLSAPYTFGGGTKLEIK
notes: also called hu 2938
B4: recombinant humanized anti-CD66c antibody Protein ID 3043 (Vk8 + VH6) (antibody, human IgG1, V domains shown)
VH: QVQLVQSGAEVKKPGASMKISCKASGYSFTDYTMNWVKQAPGQNLEWIGLINPFHGGTVSNQRFKVKATLTVDVSTNTAYMELSRLRSDDTAVYYCVRGDPVRHYYALAYWGQGTLVTVSS
VL: DIQMTQSPSTLSASVGDRVTITCRASENVYGTLNWYQRKPGKAPKLLIYGATNLADGMPSRFSGSGSGTEYTLTISSLQPDDFATYYCQNVLSAPYTFGGGTKLEIK
notes: also called hu 3043; #71
B5: anti-CD66c chimeric antibody 8F5 (antibody, human IgG1, V domains shown)
VH: EVQLQQSGPELVKPGASMKISCKASGYSFTDYTMNWVKQSHGKNLEWIGLINPFHGGTVSNQRFKVKATLTVDVSSNTAYMELLSLTSDDSAVYYCVRGDPVRHYYALAYWGQGTSVTVSS
VL: DIQMTQSPASLSASVGETVTITCGASENVYGTLNWYQRKQGKSPQLLIYGATNLADGMSSRFSGSGSGRQYSLKISSLHPDDVATYYCQNVLSAPYTFGGGTKLEII
notes: also called chimeric 8F5 antibody; chi 8F5

Tests used:
[1] = target: T1, CEACAM1 antigen (Sino Biological, Inc.); assay: ELISA, coated CEACAM1 100 ng/well, antibody 1.52 ng/ml
Method: (§1) Antigen CD66c (CEACAM6; Sino Biological, Inc.) and CEACAM1 antigen (Sino Biological, Inc.) were coated on a 96-well plate at 100 ng per well and then blocked. The primary antibody was diluted serially three fold from 10 ug/ml at initial concentration and was bound at 37° C. for 1 hour, and goat anti-Human Ig-HRP conjugate (Jackson ImmunoResearch) as a secondary antibody was diluted 1:10,000 and incubated at 37° C. for 30 minutes. The washing was carried out at three times between each step, and the TMB reaction was performed, stopped with 1N H₂SO₄ solution at the same amount of TMB solution (100 ul) and then OD value was measured at 450 nm.
(§2) As a result of the experiment, the binding affinities to CD66c antigen of the five kinds of recombinant humanized antibodies selected from among 96 kinds of recombinant humanized antibodies are shown in FIG. 4a, Table 12, FIG. 4b and Table 13. FIG. 4a and Table 12 show the binding capacity of the antibodies to CECACAM6 CD66c) antigen, and FIG. 4b and Table 13 are the results for the CEACAM1 (CD66a) antigen.

[2] = target: T2, Antigen CD66c (CEACAM6; Sino …); assay: ELISA, coated CEACAM6 100 ng/well, antibody 3333.33 ng/ml
Method: as §1, §2

[3] = target: T1, CEACAM1 antigen (Sino Biological, Inc.); assay: ELISA, coated CEACAM1 100 ng/well, antibody 3333.33 ng/ml
Method: as §1, §2

[4] = target: T3, CD66c (CEACAM6) on CD66c-positive A549 …; assay: flow cytometry on CD66c-positive A549 cells, FITC anti-human IgG
Method: Each expressed 96 recombinant humanized antibody was poured and reacted in a test tube containing the same amount ([…]) of CD66c-positive A549 non-small-cell lung cancer cell line at 4° C. for 30 minutes, washed with PBS, and treated with FITC-conjugated goat anti-Human IgG (DiNona Inc, Korea) was added and incubated at 4° C. for 15 minutes. After washing with PBS, the cells were analyzed with a flow cytometer (Stratedigm, S1000EXi) and the results are shown below.
Among the 96 recombinant humanized antibody candidates, eight were firstly selected based on the degree of expression, the presence of aggregation, and the degree of cell binding (Table 9 and Table 10, FIGS. 3A to 3E).

[5] = target: T1, CEACAM1 antigen (Sino Biological, Inc.); assay: ELISA, coated CEACAM1 100 ng/well, antibody 13.72 ng/ml
Method: as §1, §2

[6] = target: T1, CEACAM1 antigen (Sino Biological, Inc.); assay: ELISA, coated CEACAM1 100 ng/well, antibody 123.46 ng/ml
Method: as §1, §2

[7] = target: T2, Antigen CD66c (CEACAM6; Sino …); assay: ELISA, coated CEACAM6 100 ng/well, antibody 370.37 ng/ml
Method: as §1, §2

[8] = target: T2, Antigen CD66c (CEACAM6; Sino …); assay: ELISA, coated CEACAM6 100 ng/well, antibody 0.51 ng/ml
Method: as §1, §2

[9] = target: T2, Antigen CD66c (CEACAM6; Sino …); assay: ELISA, coated CEACAM6 100 ng/well, antibody 4.57 ng/ml
Method: as §1, §2

[10] = target: T1, CEACAM1 antigen (Sino Biological, Inc.); assay: ELISA, coated CEACAM1 100 ng/well, antibody 10000.00 ng/ml
Method: as §1, §2

[11] = target: T2, Antigen CD66c (CEACAM6; Sino …); assay: ELISA, coated CEACAM6 100 ng/well, antibody 0.17 ng/ml
Method: as §1, §2

| Binder | OD 450 nm [1] [OD] | OD 450 nm [2] [OD] | OD 450 nm [3] [OD] | % gated [4] [%] | OD 450 nm [5] [OD] | OD 450 nm [6] [OD] | OD 450 nm [7] [OD] | OD 450 nm [8] [OD] | OD 450 nm [9] [OD] | OD 450 nm [10] [OD] | OD 450 nm [11] [OD] |
| --- | --- | --- | --- | --- | --- | --- | --- | --- | --- | --- | --- |
| B1 | 0.05 | 3.18 | 0.31 | 72 | 0.05 | 0.07 | 2.8 | 0.38 | 0.74 | 0.42 | 0.37 |
| B2 | 0.18 | 3.24 | 1.15 | 71 | 0.46 | 0.82 | 3.16 | 0.64 | 1.02 | 1.01 | 0.53 |
| B3 | 0.05 | 3.27 | 0.27 | 71 | 0.06 | 0.1 | 3.08 | 0.36 | 0.65 | 0.32 | 0.3 |
| B4 | 0.16 | 2.95 | 1.22 | 69 | 0.43 | 0.7 | 2.92 | 0.49 | 0.91 | 0.91 | 0.41 |
| B5 | 0.16 | 3.41 | 1.24 | 73 | 0.51 | 0.95 | 3.3 | 0.41 | 0.8 | 1.21 | 0.4 |

Source: US20190263905A1 (DINONA, published 2019)
